Patent US20250179160A1 (OMEROS, published 2025)
Where two headings read alike, the source gives them in different places.

B1: 3C5, recombinant purified, mouse IgG2a Fc (antibody)
heavy: EVKLVESGGGLVQPGGSLKLSCATSGFTFSDYGMAWVRQAPGKGPEWVAFISNLAYSFYYVDIVMGRFTISRENAKNTLYLEMSSLRSEDTAMYYCARVGLYGNFFMDYWGQGTSVTVSSAKTTAPSVYPLAPVCGDTTGSSVTLGCLVKGYFPEPVTLTWNSGSLSSGVHTFPAVLQSDLYTLSSSVTVTSSTWPSQSITCNVAHPASSTKVDKKIEPRGPTIKPCPPCKCPAPNLLGGPSVFIFPPKIKDVLMISLSPIVTCVVVDVSEDDPDVQISWFVNNVEVHTAQTQTHREDYNSTLRVVSALPIQHQDWMSGKEFKCKVNNKDLPAPIERTISKPKGSVRAPQVYVLPPPEEEMTKKQVTLTCMVTDFMPEDIYVEWTNNGKTELNYKNTEPVLDSDGSYFMYSKLRVEKKNWVERNSYSCSVVHEGLHNHHTTKSFSRTPGK
light: DIQMNQSPSSLSASLGDTITITCHASQNINVWLSWYQQKPGNIPELLIYKASNLHTGVPSRFSGNRSGTSFTLTISSLQPEDIGTYFCQQGQSYPLTFGAGTKLELRRADAAPTVSIFPPSSEQLTSGGASVVCFLNNFYPKDINVKWKIDGSERQNGVLNSWTDQDSKDSTYSMSSTLTLTKDEYERHNSYTCEATHKTSTSPIVKSFNRNEC
notes: Mouse IgG2a and mouse kappa constant regions
B2: 12H10, recombinant purified, mouse IgG2a Fc (antibody)
heavy: EVQLVESGGGLVQPKGSLKLSCAASGFSFNTYAMNWVRQAPGKGLEWVARIRSKSNNYATYYADSVKDRFTISRDDSESMLYLQMNNLKTEDTAMYYCVRHGYYWYFDVWGTGTTVTVSSAKTTAPSVYPLAPVCGDTTGSSVTLGCLVKGYFPEPVTLTWNSGSLSSGVHTFPAVLQSDLYTLSSSVTVTSSTWPSQSITCNVAHPASSTKVDKKIEPRGPTIKPCPPCKCPAPNLLGGPSVFIFPPKIKDVLMISLSPIVTCVVVDVSEDDPDVQISWFVNNVEVHTAQTQTHREDYNSTLRVVSALPIQHQDWMSGKEFKCKVNNKDLPAPIERTISKPKGSVRAPQVYVLPPPEEEMTKKQVTLTCMVTDFMPEDIYVEWTNNGKTELNYKNTEPVLDSDGSYFMYSKLRVEKKNWVERNSYSCSVVHEGLHNHHTTKSFSRTPGK
light: DVLMTQTPLSLPVSLGDQASISCRSSQSIVHSDGNTYLEWYLQKPGQSPKLLIYRVSNRFSGVPDRFSGSGSGTDFTLKISRVEAEDLGVYYCFQGSHVPYTFGGGTKLEIKRADAAPTVSIFPPSSEQLTSGGASVVCFLNNFYPKDINVKWKIDGSERQNGVLNSWTDQDSKDSTYSMSSTLTLTKDEYERHNSYTCEATHKTSTSPIVKSFNRNEC
notes: as for B1
B3: 18F5, purified recombinant, human IgG4 (antibody, V domains shown)
VH: EVKLEESGGGLVQPGGSMKLSCVASGFTFGNYWMSWVRQSPEKGLEWVAEIRLKSDNYATHYAESVKGKFTISRDDSKSRLYLQMNSLRGEDTGLYYCTNAWFASWGQGTLVTVSA
VL: DIVMSQSPSSLAVSVGEKVTMSCMSSQSLLYSKDQKNYLAWYQQKPGQSPKLLIYWASTRESGVPDRFTGSGSGTDFTLTISSVKAEDLAVYYCLQYYTYPYTFGGGTKLEIKR
notes: Mouse variable regions on human IgG4 (S228P) and human kappa constant regions
B4: 2A4, purified recombinant, human IgG4 (antibody, V domains shown)
VH: EVKLEESGGGLVQPGGSMKLSCVASGFTFSTYWMSWVRQSPEKGLEWVAEIRLKSDNYATHYTESVKGKFTISRDDSKSRLYLQMNSLRVEDTGIYYCTNAWFAYWGQGTLVTVSA
VL: DIVMSQSPSSLAVSVGEKFTMSCKSSQSLLYSRDQKNYLAWYQQQPGQSPKLLIYWASTRESGVPDRFTGSGSGTDFTLTISSVKTEDLAVYYCLQYYSYPYTFGGGTKLEIKR
notes: as for B3
B5: 21H1, purified recombinant, human IgG4 Fc (antibody, V domains shown)
VH: DVQLQESGPGLVKPSQSLSLTCTVTGYSITSDYAWNWIRQFPGNKLEWMGYISYSGSTGYSPSLKSRISITRDTSKNQFFLHLNSVTTGDTATYYCARNGAMDYWGQGISVTVSS
VL: DIVLTQSPASLAVSLGQRATISCKASQSVDYDGDSYMNWYQQKPGQPPKLLIYDASTLESGIPARFSGSGSGTDFTLNIHPVEEEDAATYYCQQNYEAPWTFGGGTKLEIKR
notes: Mouse variable regions on human IgG4 (S228P) and human kappa constant regions; also called mAb 21H1; anti-pro Factor D-specific antibody 21H1
B6: 13A10, purified recombinant, human IgG4 (antibody, V domains shown)
VH: DVQLQESGPGLVKPSQSLSLTCTVTGYSITSDYAWNWIRQFPGNKLEWMGYISYIGGIGYNPSLKSRISITRDTSKNQFFLHLNSVTTGDTATYYCARNGAMDFWGQGISVTVSS
VL: DIVLTQSPASLAVSLGQRATISCKASQSVDYDGDSYMNWYQQKPGQPPKLLIYDASNLESGIPARFSGSGSGTDFTLNIHPVEEEDAATYYCQQSNEAPWTFGGGTKLEIKR
notes: as for B3
B7: 11H1, hybridoma supernatant (antibody, V domains shown)
VH: EVQLVESGGGLVQPKGSLKLSCAASGFSFNTYAMNWVRQAPGKGLEWVARIRSKSNNYATHYADSVKDRFTISRDDSESMLYLQMNNLKTEDTAMYYCVRQGYYWYFDVWGTGTTVTVSS
VL: DVLMTQTPLSLPVSLGDQASISCRSSQSIVHSNGNTYLEWYLQKPGQSPKLLIYTVSNRFSGVPDRFSGSGSGTDFTLKISRVEAEDLGVYYCFQGSHVPWTFGGGTKLEIKR
notes: Mouse hybridoma antibody
B8: 7H2, hybridoma supernatant (antibody, V domains shown)
VH: EVQVVESGGGLVRPKGSLKLSCAASGFSFNTYAMNWVRQAPGKGLEWVARIRSKSNNYATYYADSVKDRFTISRDDSESMLSLQMNNLKTEDTAMYYCVRQGYYWYFDVWGTGTTVTVSS
VL: DVLMTQTPLSLPVSLGDQASISCRSSQSIVHSNGNTYLEWYLQKPGQSPKLLIYTVSNRFSGVPDRFRGSGSGTDFTLKISRVEAEDLGVYYCFQGSHVPWTFGGGTKLEIKR
notes: Mouse hybridoma antibody

Tests used:
[1] = target: T1, recombinant human mature Factor D-His (human, UniProt P00746 26-253); assay: ELISA: antibody titrated from 3 ug/ml on 1 ug/ml plate-immobilized His-tagged Factor D; labeled goat anti-mouse IgG Fc; OD450
T1 construct: also called recombinant human mature CFD-His; not shown: His tag

[2] = target: T2, recombinant human Pro-Factor D-His (human, UniProt P00746 20-253); assay: as above
T2 construct: also called recombinant human Pro-CFD-His; not shown: His tag

[3] = target: T1, recombinant human mature Factor D-His; assay: as above; remark: listed apart in the source
Experimental: (§1) The candidate antibodies were titrated starting at 3 μg/mL antibody binding to 1 μg/mL plate-immobilized recombinant human mature Factor D-His or recombinant human Pro-Factor D-His proteins. Bound antibodies were detected by a labeled goat polyclonal antibody specific for mouse IgG Fc (Jackson ImmunoResearch).

[4] = target: T2, recombinant human Pro-Factor D-His; assay: as above; remark: listed apart in the source
Experimental: as §1

[5] = target: T3, recombinant human Pro-Factor D (human, UniProt P00746 20-253); assay: ELISA: antibody titrated 3-fold from 3 ug/ml on plate coated with 1 ug/ml recombinant human pro-Factor D; HRP anti-mouse, rat or human secondary; OD450
T3 construct: also used for the endogenous pro-Factor D detected in 3MC patient serum; also called pro CFD; hPro-CFD

[6] = target: T4, recombinant human mature Factor D (human, UniProt P00746 26-253); assay: ELISA: antibody titrated 3-fold from 3 ug/ml on plate coated with 1 ug/ml recombinant human mature Factor D; HRP anti-mouse, rat or human secondary; OD450
T4 construct: also called mature CFD; hCFD

[7] = target: T3, recombinant human Pro-Factor D; assay: sandwich ELISA: coat 21H1 (human IgG4) 1 ug/ml, recombinant human pro-Factor D spiked into diluent and titrated, detection biotin goat polyclonal BAF1824 and HRP-streptavidin; OD450
Experimental: Controls of no additional Factor D in sera were treated similarly (unspiked). Assay wells were incubated for 1 hour at room temperature then washed three times with PBST. […] After incubation and washing, HRP-tagged Streptavidin was added, incubated, and washed, followed by TMB substrate.

[8] = target: T5, recombinant human mature Factor D, Strep tagged (human, UniProt P00746 26-253); assay: ELISA with hybridoma supernatant on immobilized antigen
T5 construct: also called recombinant human mature CFD-Strep tagged; recombinant human mature Factor D-Streptavidin; not shown: Strep tag

Binder	EC50 (read off the curve) [5] [µg/mL]	binding result [6]	also measured
B1	–	–	EC50 (read off the curve) [1]: ~0.06 µg/mL; EC50 (read off the curve) [2]: ~0.04 µg/mL
B2	–	–	EC50 (read off the curve) [3]: ~0.04 µg/mL; EC50 (read off the curve) [4]: ~0.02 µg/mL
B3	~0.03	no binding (tested: 3 ug/ml)	–
B4	~0.03	no binding (tested: 3 ug/ml)	–
B5	~0.02	no binding (tested: 3 ug/ml)	EC50 (read off the curve) [7]: ~0.004 µg/mL
B6	~0.02	no binding (tested: 3 ug/ml)	–
B7	–	–	binding result [8]: binds
B8	–	–	binding result [8]: binds
